JP2014043405A (dated 2014)
Numbering of substitutions follows the chain as printed. Blank lines part the entries; values can stand above or below the binder they belong to.

Experiments:
[1] = target: T1, ヒトFcγRIa (human, UniProt P12314 16-292); assay: SPR, KD
[2] = target: T2, ヒトFcγRIIa (R) (human, UniProt P12318 34-217); assay: SPR, KD
T2 construct: extracellular domain; N-glycans trimmed with Endo F1/F2/F3 for the crystals; also called FcγRIIa R型
T2 sequence (looked up): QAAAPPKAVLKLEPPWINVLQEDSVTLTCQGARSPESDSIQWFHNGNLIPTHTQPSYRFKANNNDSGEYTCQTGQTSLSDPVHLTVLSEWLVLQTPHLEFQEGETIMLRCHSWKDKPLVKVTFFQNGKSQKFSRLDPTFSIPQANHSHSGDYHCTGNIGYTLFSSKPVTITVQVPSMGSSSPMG

[3] = target: T3, ヒトFcγRIIa (H) (human, UniProt P12318 34-217); assay: SPR, KD
T3 construct: extracellular domain; also called FcγRIIa H型
T3 sequence (looked up): T2 sequence (looked up) with R134H

[4] = target: T1, ヒトFcγRIa; assay: SPR, figure legend (Fig. 3)
[5] = target: T2, ヒトFcγRIIa (R); assay: SPR, figure legend (Fig. 4)
[6] = target: T3, ヒトFcγRIIa (H); assay: SPR, figure legend (Fig. 5)
[7] = target: T4, ヒトFcγRIIb (human, UniProt P31994 43-217); assay: SPR, figure legend (Fig. 6)
T4 construct: extracellular domain; for the crystals it was expressed with kifunensine and its N-glycans trimmed with Endo F1; also called FcγRIIb細胞外領域
T4 sequence (looked up): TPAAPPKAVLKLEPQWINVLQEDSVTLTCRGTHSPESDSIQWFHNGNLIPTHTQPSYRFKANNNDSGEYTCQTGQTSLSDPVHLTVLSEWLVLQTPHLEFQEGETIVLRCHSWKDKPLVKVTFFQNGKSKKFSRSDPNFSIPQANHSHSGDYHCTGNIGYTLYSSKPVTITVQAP

[8] = target: T5, ヒトFcγRIIIa (F) (human, UniProt P08637 17-208); assay: SPR, figure legend (Fig. 7)
T5 construct: extracellular domain
T5 sequence (P08637 17-208): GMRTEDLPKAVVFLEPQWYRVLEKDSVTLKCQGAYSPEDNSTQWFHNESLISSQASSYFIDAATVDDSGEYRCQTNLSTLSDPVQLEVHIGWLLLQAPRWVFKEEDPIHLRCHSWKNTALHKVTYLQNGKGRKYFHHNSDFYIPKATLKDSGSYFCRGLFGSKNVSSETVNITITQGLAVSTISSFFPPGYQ

[9] = target: T6, ヒトFcRn (human, UniProt P55899 24-290; P61769 21-119, limits assumed); assay: SPR, figure legends of Figs. 3-11
T6 construct: also called human FcRn; complex of human FcRn and human beta-2 microglobulin

[10] = target: T7, マウスFcγRI (mouse, UniProt P26151 25-297, limits assumed); assay: SPR, Biacore; antibody captured on immobilised human FcRn, FcγR as analyte, pH 7.4, 25C
T7 construct: also called mouse FcγRI
T7 sequence (looked up): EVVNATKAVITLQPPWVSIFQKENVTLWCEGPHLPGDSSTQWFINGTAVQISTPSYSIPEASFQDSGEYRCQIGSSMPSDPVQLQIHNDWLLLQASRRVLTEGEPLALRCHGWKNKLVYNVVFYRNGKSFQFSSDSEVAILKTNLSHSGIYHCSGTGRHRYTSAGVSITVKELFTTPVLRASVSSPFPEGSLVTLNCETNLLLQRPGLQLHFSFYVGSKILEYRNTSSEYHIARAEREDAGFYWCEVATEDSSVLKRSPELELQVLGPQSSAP

[11] = target: T8, マウスFcγRIIb (mouse, UniProt P08101 30-210, limits assumed); assay: as above
T8 construct: also called mouse FcγRIIb
T8 sequence (looked up): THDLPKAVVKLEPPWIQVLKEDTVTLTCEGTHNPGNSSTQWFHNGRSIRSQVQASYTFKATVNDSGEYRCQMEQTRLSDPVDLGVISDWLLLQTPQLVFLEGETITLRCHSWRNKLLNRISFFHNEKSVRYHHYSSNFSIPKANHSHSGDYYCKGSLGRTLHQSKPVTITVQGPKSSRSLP

[12] = target: T9, マウスFcγRIII (mouse, UniProt P08508 31-215, limits assumed); assay: as above
T9 construct: also called mouse FcγRIII
T9 sequence (looked up): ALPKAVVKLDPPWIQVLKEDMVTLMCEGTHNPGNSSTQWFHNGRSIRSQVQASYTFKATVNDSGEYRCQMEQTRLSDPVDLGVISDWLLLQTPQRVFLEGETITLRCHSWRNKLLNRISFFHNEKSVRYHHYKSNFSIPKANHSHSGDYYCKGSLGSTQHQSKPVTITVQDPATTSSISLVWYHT

[13] = target: T10, マウスFcRn (mouse, UniProt Q61559 22-297, limits assumed); assay: SPR, Biacore T100, pH 7.0, 25C
T10 construct: also called mouse FcRn
T10 sequence (looked up): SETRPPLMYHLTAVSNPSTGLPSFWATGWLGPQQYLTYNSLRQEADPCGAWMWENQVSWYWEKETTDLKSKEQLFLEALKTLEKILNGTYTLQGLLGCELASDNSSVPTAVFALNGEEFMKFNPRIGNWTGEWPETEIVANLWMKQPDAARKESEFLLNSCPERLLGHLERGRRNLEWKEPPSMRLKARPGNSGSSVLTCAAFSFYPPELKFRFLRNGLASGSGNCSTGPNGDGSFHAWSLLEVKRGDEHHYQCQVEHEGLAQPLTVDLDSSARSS

[14] = target: T10, マウスFcRn; assay: SPR, Biacore T100; antibody captured on protein L, FcRn as analyte, pH 7.0, 25C; reference Fv4-IgG1
[15] = target: T2, ヒトFcγRIIa (R); assay: SPR, KD; reference IL6R-BP230/IL6R-L
[16] = target: T4, ヒトFcγRIIb; assay: SPR, KD; reference IL6R-BP230/IL6R-L
[17] = target: T4, ヒトFcγRIIb; assay: SPR, KD; reference IL6R-B3/IL6R-L; the lowest of the named variants
[18] = target: T4, ヒトFcγRIIb; assay: SPR, KD; reference IL6R-B3/IL6R-L; the highest of the named variants
[19] = target: T4, ヒトFcγRIIb; assay: SPR; KD for FcγRIIaH divided by KD for FcγRIIb

T1 sequence (P12314 16-292): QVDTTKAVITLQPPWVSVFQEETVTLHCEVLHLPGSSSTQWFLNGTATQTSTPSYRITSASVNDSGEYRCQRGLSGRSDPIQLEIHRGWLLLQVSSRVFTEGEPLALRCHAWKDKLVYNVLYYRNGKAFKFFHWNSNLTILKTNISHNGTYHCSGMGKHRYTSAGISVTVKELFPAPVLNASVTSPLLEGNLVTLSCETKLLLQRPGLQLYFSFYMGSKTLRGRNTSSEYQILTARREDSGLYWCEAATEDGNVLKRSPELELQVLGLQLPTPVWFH

binding result [1]: binds
binding result [2]: binds
binding result [3]: binds
B1: IL6R-B3/IL6R-L (antibody, human IgG1)
heavy: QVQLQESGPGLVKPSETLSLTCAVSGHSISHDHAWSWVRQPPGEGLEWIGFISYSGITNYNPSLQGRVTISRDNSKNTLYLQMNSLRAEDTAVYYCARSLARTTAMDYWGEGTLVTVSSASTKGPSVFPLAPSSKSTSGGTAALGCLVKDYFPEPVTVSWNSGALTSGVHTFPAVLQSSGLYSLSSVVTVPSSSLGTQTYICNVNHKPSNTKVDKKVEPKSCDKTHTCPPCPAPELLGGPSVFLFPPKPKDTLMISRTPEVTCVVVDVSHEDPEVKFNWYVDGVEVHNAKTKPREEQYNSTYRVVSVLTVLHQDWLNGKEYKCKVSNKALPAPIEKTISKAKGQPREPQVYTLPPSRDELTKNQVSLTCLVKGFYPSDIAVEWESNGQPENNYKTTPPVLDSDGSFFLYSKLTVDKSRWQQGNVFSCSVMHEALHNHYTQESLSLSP
light: DIQMTQSPSSLSASVGDRVTITCRASQDISSYLNWYQQKPGKAPKLLIYYTSRLHSGVPSRFSGSGSGTDFTFTISSLQPEDIATYYCQQGNTLPYTFGQGTKVEIK

binding result [4]: binds
binding result [5]: binds
binding result [6]: binds
binding result [7]: binds
binding result [8]: binds
binding result [9]: binds
binding result [10]: binds
binding result [11]: binds
binding result [12]: binds
B2: Fv4-IgG1-F157 (antibody)
heavy: QVQLQESGPGLVKPSETLSLTCAVSGHSISHDHAWSWVRQPPGEGLEWIGFISYSGITNYNPSLQGRVTISRDNSKNTLYLQMNSLRAEDTAVYYCARSLARTTAMDYWGEGTLVTVSSASTKGPSVFPLAPSSKSTSGGTAALGCLVKDYFPEPVTVSWNSGALTSGVHTFPAVLQSSGLYSLSSVVTVPSSSLGTQTYICNVNHKPSNTKVDKKVEPKSCDKTHTCPPCPAPELLGGPSVFLFPPKPKDTLMISRTAEVTCVVVDVSHEDPEVKFNWYVDGVEVHNAKTKPREEQYNSTYRVVSVLTPLHQDWLNGKEYKCKVSNKALPAPIEKTISKAKGQPREPQVYTLPPSRDELTKNQVSLTCLVKGFYPSDIAVEWESNGQPENNYKTTPPVLDSDGSFFLYSKLTVDKSRWQQGNVFSCSVLHEALHYHYTQKSLSLSP
light: DIQMTQSPSSLSASVGDSVTITCQASTDISSHLNWYQQKPGKAPELLIYYGSHLLSGVPSRFSGSGSGTDFTFTISSLEAEDAATYYCGQGNRLPYTFGQGTKVEIERTVAAPSVFIFPPSDEQLKSGTASVVCLLNNFYPREAKVQWKVDNALQSGNSQESVTEQDSKDSTYSLSSTLTLSKADYEKHKVYACEVTHQGLSSPVTKSFNRGEC
notes: also called VH3-IgG1-F157/VL3-CK

Kd [13]: 150 nM
fold improvement of affinity against IgG1 [14]: ~24.7 fold
B3: Fv4-hF1 (antibody, human IgG1, kappa)
heavy: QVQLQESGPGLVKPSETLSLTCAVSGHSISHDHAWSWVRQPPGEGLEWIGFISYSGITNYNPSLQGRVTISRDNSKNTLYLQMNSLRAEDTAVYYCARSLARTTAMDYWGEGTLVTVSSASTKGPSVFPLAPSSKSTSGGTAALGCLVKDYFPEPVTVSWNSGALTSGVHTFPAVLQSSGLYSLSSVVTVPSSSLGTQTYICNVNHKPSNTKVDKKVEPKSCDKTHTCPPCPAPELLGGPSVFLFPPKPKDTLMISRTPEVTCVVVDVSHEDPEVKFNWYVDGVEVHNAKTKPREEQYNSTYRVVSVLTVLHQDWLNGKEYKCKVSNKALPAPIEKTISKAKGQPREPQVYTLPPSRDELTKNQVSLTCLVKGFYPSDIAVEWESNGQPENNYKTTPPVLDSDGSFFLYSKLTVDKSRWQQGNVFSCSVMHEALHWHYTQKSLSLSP
light: B2 light

binding relative to IL6R-BP230/IL6R-L [15]: 0.9 fold
fold enhancement of binding against IL6R-BP230/IL6R-L [16]: 1.1 fold
B4: IL6R-BP478/IL6R-L (antibody)
chain 1: QVQLQESGPGLVKPSETLSLTCAVSGHSISHDHAWSWVRQPPGEGLEWIGFISYSGITNYNPSLQGRVTISRDNSKNTLYLQMNSLRAEDTAVYYCARSLARTTAMDYWGEGTLVTVSSASTKGPSVFPLAPCSRSTSESTAALGCLVKDYFPEPVTVSWNSGALTSGVHTFPAVLQSSGLYSLSSVVTVPSSSLGTKTYTCNVDHKPSNTKVDKRVESKYGPPCPPCPAPDLLGDDSVFLFPPKPKDTLMISRTPEVTCVVVDVSDEDGEVKFNWYVDGVEVHNAKTKPREEQDNSTYRVVSVLTVLHQDWLNGKEYKCKVSNKALPRPIEKTISKAKGQPREPQVYTLPPSRDELTKNQVSLTCLVKGFYPSDIAVEWESNGQPENNYKTTPPVLDSDGSFFLYSKLTVDKSRWQQGNVFSCSVMHEALHNHYTQESLSLSP
chain 2: not shown

fold enhancement of binding, IL6R-B3/IL6R-L = 1 [17]: 321 fold
B5: IL6R-BP495/IL6R-L (antibody)
chain 1: QVQLQESGPGLVKPSETLSLTCAVSGHSISHDHAWSWVRQPPGEGLEWIGFISYSGITNYNPSLQGRVTISRDNSKNTLYLQMNSLRAEDTAVYYCARSLARTTAMDYWGEGTLVTVSSASTKGPSVFPLAPSSKSTSGGTAALGCLVKDYFPEPVTVSWNSGALTSGVHTFPAVLQSSGLYSLSSVVTVPSSSLGTQTYICNVNHKPSNTKVDKKVEPKSCDKTHTCPPCPAPELLGDDSVFLFPPKPKDTLMISRTPEVTCVVVDVGEEDGEVKFNWYVDGVEVHNAKTKPREEQDNSTYRVVSVLTVLHQDWLNGKEYKCKVSNKALPRPIEKTISKAKGQPREPQVYTLPPSRDELTKNQVSLTCLVKGFYPSDIAVEWESNGQPENNYKTTPPVLDSDGSFFLYSKLTVDKSRWQQGNVFSCSVMHEALHNHYTQESLSLSP
chain 2: not shown

fold enhancement of binding, IL6R-B3/IL6R-L = 1 [18]: 3100 fold
B6: IL6R-BP489/IL6R-L (antibody)
chain 1: B5 chain 1 with E235D, V266I, G269A, P398M
chain 2: not shown

KD (IIaH)/KD (IIb) [19]: 108 ratio
B7: IL6R-BP480/IL6R-L (antibody)
chain 1: B5 chain 1 with E235D, V268L, G269S, E271D, D298Y, R332A
chain 2: not shown

KD (IIaH)/KD (IIb) [19]: 8360 ratio
B8: IL6R-BP426/IL6R-L (antibody)
chain 1: B5 chain 1 with E235D, G269A, E271D, D298Y
chain 2: not shown
